Assay results reported in FireProtDB (doi:10.1021/ja046667t).
Values joined by “and” are separate entries in the source; they are usually repeats but may differ in a detail not shown here. Equal values may be shown once.

Conditions: pH 7, Thermal, CD, Phosphate 50 mM, whole UniProt chain shown

B1: Cytochrome c-551 wild type, P00099 (protein)
chain: MKPYALLSLLATGTLLAQGAWAEDPEVLFKNKGCVACHAIDTKMVGPAYKDVAAKFAGQAGAEAELAQRIKNGSQGVWGPIPMPPNAVSDDEAQTLAKWVLSQK
Pseudomonas aeruginosa (strain ATCC 15692 / DSM 22644 / CIP 104116 / JCM 14847 / LMG 12228 / 1C / PRS 101 / PAO1), 25 °C
  unfolding free energy: 7.7 kcal/mol and 19.5 kcal/mol
Pseudomonas aeruginosa (strain ATCC 15692 / DSM 22644 / CIP 104116 / JCM 14847 / LMG 12228 / 1C / PRS 101 / PAO1)
  unfolding enthalpy (van 't Hoff): 70.5 kcal/mol and 159 kcal/mol

B2: Cytochrome c-552 wild type, P15452 (protein)
chain: MKKFLLVAVVGLAGITFANEQLAKQKGCMACHDLKAKKVGPAYADVAKKYAGRKDAVDYLAGKIKKGGSGVWGSVPMPPQNVTDAEAKQLAQWILSIK
Hydrogenobacter thermophilus (strain DSM 6534 / IAM 12695 / TK-6), 25 °C
  unfolding enthalpy (van 't Hoff): 56.3 kcal/mol and 64.2 kcal/mol
Hydrogenobacter thermophilus (strain DSM 6534 / IAM 12695 / TK-6)
  unfolding enthalpy (van 't Hoff): 109 kcal/mol and 140 kcal/mol
